Reference: patent US20110318339A1 (FABRUS, published 2011)

Assays:
[1] = target: T1, rHuman Erythropoietin R/Fc Chimera, CF (Cat# 963-ER) (human, UniProt P19235 25-250); assay: Multispot ECL; Fab 2.0 nM
T1 construct: Bought from R&D Systems; also called EPO R/Fc; Epo R/Fc chimera
T1 sequence (looked up): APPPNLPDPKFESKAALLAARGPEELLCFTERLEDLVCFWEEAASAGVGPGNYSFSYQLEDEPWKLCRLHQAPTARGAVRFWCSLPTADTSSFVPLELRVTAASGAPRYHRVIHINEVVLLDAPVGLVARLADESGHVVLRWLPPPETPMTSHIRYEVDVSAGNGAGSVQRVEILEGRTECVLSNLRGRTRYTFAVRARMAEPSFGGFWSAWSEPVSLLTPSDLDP
Description: (§1) An 150 μl aliquot of 1% Bovine Serum Albumin (BSA) in Tris-buffered Saline Tween (TBST) was added to each well and allowed to incubate for 30 min at 20° C. followed by washing and tap drying to completely remove any residual solution. Subsequently, a 12.5 μl aliquot of 1% BSA TBST was added to each well followed by the addition of a 12.5 μl aliquot of a purified Fab. The plate was sealed and incubated for 1 hour at 20° C. with shaking.
(§2) Detection antibodies were prepared by individually conjugating both goat anti-human Kappa light chain polyclonal antibody (K3502-1MG, Sigma-Aldrich) and goat anti-human Lambda light chain polyclonal antibody (L1645-1 mL, Sigma-Aldrich) with Ruthenium (II) tris-bipyridine-(4-methylsulfone)-N-hydroxysuccinimide (SULFO-TAG NHS-ester, Meso Scale Discovery) according to the manufacturer's instructions. TAG-detection antibody at 25 μl was added to each well and allowed to incubate for 1 hour at 20° C. with shaking. Finally, 15 μl of Read Buffer P with Surfactant (Cat # R92PC-1, Meso Scale Discovery) was added to each well. The electrochemiluminescence was measured using a Sector Imager 2400 (Meso Scale Discovery). Data was analyzed by comparing the ECL signals for an antigen to the blank of each well. A signal to blank ratio of 4 or more was considered a “Hit” Fab.
(§3) To confirm a “Hit” from the initial Multispot ECL screening, a Fab concentration dependent titration was carried out to determine the Fab-antigen binding affinity.

[2] = target: T2, rHuman Notch-1/Fc Chimera, CF (Cat# 3647-TK) (human, UniProt P46531 19-526); assay: Multispot ECL; Fab 2.0 nM
T2 construct: Bought from R&D Systems
Description: as §1, §2, §3

[3] = target: T3, rHuman HGF R/c-MET/Fc Chimera, CF (Cat# 358-MT/CF) (human, UniProt P08581 25-932); assay: Multispot ECL; Fab 2.0 nM
T3 construct: Bought from R&D Systems; also called HGF R/Fc; hepatocyte growth factor receptor (HGF R/c-Met)
Description: as §1, §2, §3

[4] = target: T4, rHuman IGF-1 sR, (IGF-1 sR), CF (Cat# 391-GR) (human, UniProt P08069 31-932); assay: Multispot ECL; Fab 2.0 nM
T4 construct: Bought from R&D Systems; also called insulin-like growth factor-1 soluble receptor
Description: as §1, §2, §3

[5] = target: T5, Recombinant Human DLL4 (Cat# 1506-D4/CF) (human, UniProt Q9NR61 27-529); assay: Multispot ECL; Fab 2.0 nM
T5 construct: Bought from R&D Systems; also called rHuman DLL4; hDLL4
Description: as §1, §2, §3

[6] = target: T1, rHuman Erythropoietin R/Fc Chimera, CF …; assay: Multispot ECL; Fab 130 nM
Description: as §1, §2, §3

[7] = target: T2, rHuman Notch-1/Fc Chimera, CF (Cat# …); assay: Multispot ECL; Fab 130 nM
Description: as §1, §2, §3

[8] = target: T3, rHuman HGF R/c-MET/Fc Chimera, CF (Cat# …); assay: Multispot ECL; Fab 130 nM
Description: as §1, §2, §3

[9] = target: T6, rHuman CD44/Fc Chimera, CF (Cat# 3660-CD) (human, UniProt P16070 21-220); assay: Multispot ECL; Fab 130 nM
T6 construct: Bought from R&D Systems
Description: as §1, §2, §3

[10] = target: T4, rHuman IGF-1 sR, (IGF-1 sR), CF (Cat# …); assay: Multispot ECL; Fab 130 nM
Description: as §1, §2, §3

[11] = target: T7, rHuman EGF R/Fc Chimera, CF (Cat# 344-ER) (human, UniProt P00533 25-645); assay: Multispot ECL; Fab 130 nM
T7 construct: Bought from R&D Systems; also called epidermal growth factor receptor (EGF R)
Description: as §1, §2, §3

[12] = target: T5, Recombinant Human DLL4 (Cat# 1506-D4/CF); assay: Multispot ECL; Fab 130 nM
Description: as §1, §2, §3

[13] = target: T8, rHuman ErbB2/Fc Chimera, CF (Cat# 1129-ER) (human, UniProt P04626 23-652); assay: Multispot ECL; Fab 130 nM
T8 construct: Bought from R&D Systems; also called human epidermal growth factor 2 receptor (ErbB2)
Description: as §1, §2, §3

B1: Fab VH1-8_IGHD2-2*01_IGHJ6*01 & L12_IGKJ1*01 (Fab, V domains shown)
VH: QVQLVQSGAEVKKPGASVKVSCKASGYTFTSYDINWVRQATGQGLEWMGWMNPNSGNTGYAQKFQGRVTMTRNTSISTAYMELSSLRSEDTAVYYCARGGYCSSTSCYADYYYYYGMDVWGQGTTVTVSS
VL: not shown
ECL signal [1]: 433
ECL signal [2]: 539
ECL signal [3]: 356
ECL signal [4]: 367
ECL signal [5]: 605
ECL signal [6]: 2150
ECL signal [7]: 1760
ECL signal [8]: 1880
ECL signal [9]: 1750
ECL signal [10]: 1970
ECL signal [11]: 1750
ECL signal [12]: 7740
ECL signal [13]: 1530
